# Source: the supplement of paper PMC10567573
# ± gives the standard deviation.
# Experiment: protein stability index of a GFP-peptide fusion (GPS, HEK-293T) (PSI 1-6); higher = more stable
# [1] = treatment: DMSO, c terminus: a fixed tail appended
# [2] = treatment: MLN4924 1 uM, 8 h, c terminus: a fixed tail appended
# [3] = treatment: DMSO, c terminus: native
# [4] = treatment: MLN4924 1 uM, 8 h, c terminus: native
# 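Also: 24-mer peptide tiles fused after GFP, lentivirally expressed, FACS-sorted into six equal bins by GFP/DsRed ratio, decoded by Illumina sequencing, PSI is the read-weighted mean bin number.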
Sequence,protein stability index [1],protein stability index [2],protein stability index [3],protein stability index [4]
EEEEERWEWSPAGLQSYQQALLRI [SERTAD3],3.46 ± 0.29,3.43 ± 0.17,–,–
APPAKLACPVCSKMVPRYDLNRHL [FAN1],2.39 ± 0.21,2.95 ± 0.55,–,–
KVLRRWVDEEWPKRERGDPSRHF [EDARADD],–,–,3.21 ± 0.43,3.42 ± 0.2
SGRHILEDSCAELGESKEHMESRM [SDE2],4.64 ± 0.35,4.48 ± 0.23,–,–
KNKPKKMGHIKPDLIDVDLIRGST [PHTF1],3.8 ± 0.28,4.04 ± 0.2,–,–
GGTTGYIYSTDLHKLDLNTREWTQ [KLHDC10],2.44 ± 0.3,2.47 ± 0.43,–,–
MYSEIQRERADIGGLMARPEYREW [FAM107A],2.93 ± 0.26,2.92 ± 0.42,–,–
VLFNEKIREQIKKYRRHFLRFCHN [EIF5],2.82 ± 0.29,3 ± 0.65,–,–
EVRAKFKFSLLNAKREETKAMESQ [SPOPL],4.06 ± 0.29,3.97 ± 0.33,–,–
SASSDEPYARIQQSRRQCHAEEDQ [SMIM2],5.49 ± 0.17,5.63 ± 0.2,–,–
RLEQEIATYRRLLEGEDAHLSSQQ [KRT16],3.95 ± 0.097,4.21 ± 0.18,–,–
TFAMVKGYFFPTSARDCKFTGNFF [DHCR7],2.56 ± 0.39,2.71 ± 0.43,–,–
MSRMINKYKRRRFQKTKNLLTGET [CLPTM1],3.05 ± 0.32,3.26 ± 0.35,–,–
RDTFYKEQLERIERKNAEMYKLSS [CHCHD6],3.5 ± 0.12,3.79 ± 0.43,–,–
TKKRHTPRGHAESTSNRQPRKQG [SMOC2],–,–,2.59 ± 0.62,3.3 ± 0.49
NYTSRVWEYSSSIQNSDNDLPVVQ [TRIM29],3.88 ± 0.26,4.02 ± 0.32,–,–
HLTRGRKMAHVIAACLYLVCRTEG [BRF1],2.53 ± 0.99,2.6 ± 0.48,–,–
GLPGSGKTTLARQLQHDFPRALIF [N4BP2L1],2.25 ± 0.18,2.56 ± 0.23,–,–
VVWNAQTGEKLLELNGHTQKITAI [WDR41],2.19 ± 0.2,2.31 ± 0.17,–,–
RAGEQRKRSQSMKSYPSSELRNMC [CLCN6],4.29 ± 0.078,4.37 ± 0.21,–,–
KAFSRSSGLFNHRGIHNIQKRYHC [ZSCAN9],2.63 ± 0.39,2.45 ± 0.14,–,–
FLVGLLFVQRSGNYFVTMFDDYSA [SLC6A17],3.05 ± 0.76,3.27 ± 0.38,–,–

Sequence,protein stability index [1],protein stability index [2],protein stability index [3],protein stability index [4]
PAGEMKPMPLSEGKSILLFGGAAA [BCL2L13],3.53 ± 0.15,3.75 ± 0.27,–,–
WGGKAETERGLSRKHIIEGLKASL [KCNAB2],2.26 ± 0.29,2.02 ± 0.21,–,–
DKPLPPPPPGSLSRTQEPSLGKQK [SOAT2],5.27 ± 0.28,5.41 ± 0.21,–,–
EKGRALQIRDWRGGRLENQKPRGL [ZSWIM9],4 ± 0.34,4.2 ± 0.35,–,–
VAVDYCASENHGCEHECVNADGSY [MATN2],5.08 ± 0.13,5.07 ± 0.054,–,–
CSPSQMDLLCAQLQLPQLSDLGLL [FANCE],2.15 ± 0.42,2.13 ± 0.44,–,–
VCRIGDWLQERYEIVGNLGEGTFG [CLK3],2.22 ± 0.42,2.37 ± 0.33,–,–
ICARACNTTLTQYQLLATHVPTVW [RHOBTB1],2.52 ± 0.49,2.43 ± 0.7,–,–
LSSAVWPGGETEALTRLERHLERK [CRY1],4.44 ± 0.22,4.27 ± 0.061,–,–
RWFRSVDWEAVPQRKLKPPIVPKI [PRKX],2.33 ± 0.26,2.44 ± 0.29,–,–
MAFLDKRLQVKEHQHEEIQNVRNH [ATL3],3.84 ± 0.069,3.98 ± 0.23,–,–
DYAHGFGNISGEFWLGNEALHSLT [TNXB],2.43 ± 0.73,2.82 ± 0.57,–,–
GRSGWPAGGAPGSPIPSPPGPGDD [HES6],5.2 ± 0.21,5.25 ± 0.093,–,–
DSFLVALDMDDGTLSFIVDGQYMG [SPSB1],2.64 ± 0.63,2.74 ± 0.41,–,–
KRGPSSRSGGPPPKKSAPSAVARS [RBMY1A1],4.47 ± 0.12,4.78 ± 0.39,–,–
HSIINALKAKLQMTEAALALSEQK [LRRC45],2.63 ± 0.087,2.74 ± 0.27,–,–
FQEPDSPLPPARSPTEPGPERRRS [WEE1],5.32 ± 0.35,5.31 ± 0.06,–,–
ALVAPLLRLENNHCHIEESEHVLK [VPS39],3.26 ± 0.11,3.32 ± 0.2,–,–
REEQCAAYNHRTDLFKSFPGPMDW [ADAMTS4],3.06 ± 0.45,3.1 ± 0.3,–,–
DGLLGDNQIMPKTGFLIIILAIIA [MAGEA6],2.86 ± 0.65,2.12 ± 0.46,–,–
TVGLLWFAHHSLFLHVRKATRAMG [TMEM175],2.46 ± 0.15,2.42 ± 0.39,–,–
EEDLQSQSETQGLEGAQAPLAVEE [MAGEA10],5.73 ± 0.14,5.75 ± 0.089,–,–

Sequence,protein stability index [1],protein stability index [2],protein stability index [3],protein stability index [4]
FLGISIVGQSNERGDGGIYIGSIM [DVL3],2.87 ± 0.99,2.61 ± 0.68,–,–
EYDDDDSAASTSFQPQPVQPQQGY [ZNF207],5.32 ± 0.21,5.37 ± 0.26,–,–
LSDKSCQSFISWTGDGWEFKLADP [ETS2],2.49 ± 0.22,2.59 ± 0.36,–,–
RSVQNFRFFASSSLHHTSECTQMD [ALDH8A1],3.14 ± 0.24,3.29 ± 0.33,–,–
WRMLRPQLVNSSADNMLEYKSWLK [PPEF2],2.64 ± 0.49,2.7 ± 0.39,–,–
GKNWSKLCKDCQVIDGRNVTVTDV [TPPP],3.67 ± 0.14,3.92 ± 0.23,–,–
KYFGCELGAQTQFDVKNDRYIVNG [EIF5],3.08 ± 0.35,3.27 ± 0.26,–,–
LQNEVPPQPDPVFLEALSSRYLGD [SERTAD3],4.32 ± 0.15,4.25 ± 0.14,–,–
VPLQLSAHWQCGATLTQVSVEYGY [FCHO1],2.76 ± 0.76,2.6 ± 0.67,–,–
FLDLFRYRVLLGHTLILMFIWFVC [SLC22A15],2.73 ± 0.42,2.85 ± 0.71,–,–
SLCTHLIYAFAGMTNHQLSTTEWN [CHIT1],3.43 ± 0.33,3.27 ± 0.38,–,–
GKSRLSPAGEMKPMPLSEGKSILL [BCL2L13],3.44 ± 0.32,3.44 ± 0.32,–,–
TPAPMSSAWKTVACGGTRDQLFMQ [MYBL2],2.75 ± 0.17,2.69 ± 0.3,–,–
LKAEELLLKIHEVSTVSHADADCF [CASP6],3.03 ± 0.15,3.14 ± 0.28,–,–
TPVMEGYVEVKEGKTWKQICDKHW [LOXL2],3.28 ± 0.32,3.51 ± 0.37,–,–
GAPEDDEEDDGRGRGLLRWDSFSA [DENND6A],4.92 ± 0.078,4.98 ± 0.19,–,–
SEQLVNFTGKAEMGGPFSYVYFFC [TMEM106C],2.69 ± 0.48,2.64 ± 0.45,–,–
SILFGHENRVSTLRVSPDGTAFCS [GNB5],2.88 ± 0.41,3.02 ± 0.13,–,–
EDAHLTQYKKEPVTTRQVRTIVEE [KRT17],5.01 ± 0.37,5.01 ± 0.19,–,–
DIKNPEITTNRFYGPQVNNISHTK [WASL],3.19 ± 0.26,3.48 ± 0.41,–,–
FTGRDSITCLTCQGTGYIPTEQVN [TMEM106C],2.66 ± 0.57,3.31 ± 0.65,–,–
